Experimental data reported in PMC8637920, “Structure, Function and Regulation of a Second Pyruvate Kinase Isozyme in Pseudomonas aeruginosa” (Frontiers in Microbiology, 2021).

Tests used:
PykFPA = target: T1, PykFPA (Pseudomonas aeruginosa, UniProt Q9I3L4); assay: lactate dehydrogenase-coupled assay, activation; format: biochemical; settings: K-type activator (shifts S0.5 of PEP), 2 mM ADP, allosteric
T1 construct: gene pykF; full-length, 477 residues, untagged, from pET-19m in E. coli BL21(DE3)
T1 sequence (Q9I3L4 1-477): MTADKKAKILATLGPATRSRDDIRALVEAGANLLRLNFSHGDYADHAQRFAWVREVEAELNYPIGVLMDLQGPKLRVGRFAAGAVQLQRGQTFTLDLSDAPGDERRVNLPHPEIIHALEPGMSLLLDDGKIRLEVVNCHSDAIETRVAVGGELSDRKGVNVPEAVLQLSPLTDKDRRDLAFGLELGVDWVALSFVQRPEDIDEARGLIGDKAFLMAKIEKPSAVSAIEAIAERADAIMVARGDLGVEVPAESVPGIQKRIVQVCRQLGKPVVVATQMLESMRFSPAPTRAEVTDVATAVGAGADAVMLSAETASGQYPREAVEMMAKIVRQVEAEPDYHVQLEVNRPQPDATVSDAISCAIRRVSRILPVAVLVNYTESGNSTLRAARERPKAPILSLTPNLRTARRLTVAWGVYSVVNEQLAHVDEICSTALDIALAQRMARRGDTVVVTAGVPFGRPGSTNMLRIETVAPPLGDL

[1] = substrate: C=C(OP(=O)(O)O)C(=O)O; assay: lactate dehydrogenase-coupled assay; format: biochemical, Pseudomonas aeruginosa; settings: 2 mM ADP; Mg2+; no regulator added; sigmoidal
[2] = substrate: Nc1ncnc2c1ncn2[C@@H]1O[C@H](COP(=O)(O)OP(=O)(O)O)[C@@H](O)[C@H]1O; assay: lactate dehydrogenase-coupled assay; format: biochemical, Pseudomonas aeruginosa; settings: 5 mM PEP; Mg2+; no regulator added; hyperbolic
[3] = target: the molecule itself; assay: AUC; purified PykFPA in solution; carried out as previously described (Abdelhamid et al., 2019); analysed with SEDFIT and SEDNTERP

For `O=C(CO)[C@H](O)[C@H](O)COP(=O)(O)O` [ribulose 5-phosphate], the “lactate dehydrogenase-coupled assay, activation” value (PykFPA; 0.5 mM) was “ribulose 5-phosphate (RL5P), and R5P]”.

`O=C(CO)[C@@H](O)[C@H](O)COP(=O)(O)O` [xylulose 5-phosphate] was tested, and the “lactate dehydrogenase-coupled assay, activation” value (PykFPA; 0.5 mM) was “strongly activated by metabolites from the non-oxidative PPP [(xylulose 5-phosphate (X5P)”.

For `O=P(O)(O)OC[C@H]1OC(O)[C@H](O)[C@@H]1O` (stereo partly shown) [ribose 5-phosphate], the “lactate dehydrogenase-coupled assay, activation” value (PykFPA; 0.15 mM) was “ribulose 5-phosphate (RL5P), and R5P]”.

For `Nc1ncnc2c1ncn2[C@@H]1O[C@H](COP(=O)(O)O)[C@@H](O)[C@H]1O` [adenosine 5′-monophosphate], the “lactate dehydrogenase-coupled assay, activation” value (PykFPA; 1 mM) was “PykFPA (but not PykAPA) was activated by AMP”.

For `O=P(O)(O)OC[C@H]1OC(O)[C@H](O)[C@@H](O)[C@@H]1O` (stereo partly shown) [glucose 6-phosphate], the “lactate dehydrogenase-coupled assay, activation” value (PykFPA; 1 mM) was “to a lesser extent, by the EDP intermediates G6P and G3P”.

`O=C[C@H](O)COP(=O)(O)O` [glyceraldehyde 3-phosphate] was tested, and the “lactate dehydrogenase-coupled assay, activation” value (PykFPA; 1 mM) was “to a lesser extent, by the EDP intermediates G6P and G3P”.

B1: Pseudomonas aeruginosa pyruvate kinase isozyme PykF (PykFPA) (enzyme, UniProt Q9I3L4 1-477, looked up)
chain: MTADKKAKILATLGPATRSRDDIRALVEAGANLLRLNFSHGDYADHAQRFAWVREVEAELNYPIGVLMDLQGPKLRVGRFAAGAVQLQRGQTFTLDLSDAPGDERRVNLPHPEIIHALEPGMSLLLDDGKIRLEVVNCHSDAIETRVAVGGELSDRKGVNVPEAVLQLSPLTDKDRRDLAFGLELGVDWVALSFVQRPEDIDEARGLIGDKAFLMAKIEKPSAVSAIEAIAERADAIMVARGDLGVEVPAESVPGIQKRIVQVCRQLGKPVVVATQMLESMRFSPAPTRAEVTDVATAVGAGADAVMLSAETASGQYPREAVEMMAKIVRQVEAEPDYHVQLEVNRPQPDATVSDAISCAIRRVSRILPVAVLVNYTESGNSTLRAARERPKAPILSLTPNLRTARRLTVAWGVYSVVNEQLAHVDEICSTALDIALAQRMARRGDTVVVTAGVPFGRPGSTNMLRIETVAPPLGDL
notes: Pyruvate kinase PykF of Pseudomonas aeruginosa (PA1498), untagged full-length protein, 477 residues, monomer 51.5 kDa; also called PA1498; source: E. coli BL21 (DE3) with plasmid pET-19m (pykF), purified
For B1, the K0.5 [1] was 1.03 ± 0.01 mM, the kcat [1] was 379 s⁻¹ and the kcat/Km [1] was 367000 M⁻¹ s⁻¹. The K0.5 [2] was 0.11 ± 0.01 mM, the kcat [2] was 433 s⁻¹ and the kcat/Km [2] was 3.94e+06 M⁻¹ s⁻¹. For the same molecule, the “stoichiometry N” value [3] was 4.
